The target of one test is T1, DOTA-MART-1 (conjugated with the chelator DOTA (no radiometal stated); attachment site not stated).
T1 construct: also called MART-1 peptide with DOTA
The test is described as follows: SPR (Biacore T200), CD206 immobilized on CM5 chip, peptide as analyte. For orientation: SPR reads the build-up and loss of mass on a sensor chip optically.

The target in another test is T2, [68Ga]MART-1 (conjugated with the chelator DOTA complexed with 68Ga; attachment site not stated).
T2 construct: Synthetic control peptide with DOTA, radiolabeled with 68Ga under the same conditions as RP832c; also called 68Ga-labeled DOTA-MART-1; control tracer
Briefly: protein plate binding assay on coated mouse CD206, gamma counting.

The record followed here is US20250161505A1 (RIPTIDE BIOSCIENCE, published 2025).

B1: Recombinant human CD206 (receptor)
chain: LLDTRQFLIYNEDHKRCVDAVSPSAVQTAACNQDAESQKFRWVSESQIMSVAFKLCLGVPSKTDWVAITLYACDSKSEFQKWECKNDTLLGIKGEDLFFNYGNRQEKNIMLYKGSGLWSRWKIYGTTDNLCSRGYEAMYTLLGNANGATCAFPFKFENKWYADCTSAGRSDGWLWCGTTTDYDTDKLFGYCPLKFEGSESLWNKDPLTSVSYQINSKSALTWHQARKSCQQQNAELLSITEIHEQTYLTGLTSSLTSGLWIGLNSLSFNSGWQWSDRSPFRYLNWLPGSPSAEPGKSCVSLNPGKNAKWENLECVQKLGYICKKGNTTLNSFVIPSESDVPTHCPSQWWPYAGHCYKIHRDEKKIQRDALTTCRKEGGDLTSIHTIEELDFIISQLGYEPNDELWIGLNDIKIQMYFEWSDGTPVTFTKWLRGEPSHENNRQEDCVVMKGKDGYWADRGCEWPLGYICKMKSRSQGPEIVEVEKGCRKGWKKHHFYCYMIGHTLSTFAEANQTCNNENAYLTTIEDRYEQAFLTSFVGLRPEKYFWTGLSDIQTKGTFQWTIEEEVRFTHWNSDMPGRKPGCVAMRTGIAGGLWDVLKCDEKAKFVCKHWAEGVTHPPKPTTTPEPKCPEDWGASSRTSLCFKLYAKGKHEKKTWFESRDFCRALGGDLASINNKEEQQTIWRLITASGSYHKLFWLGLTYGSPSEGFTWSDGSPVSYENWAYGEPNNYQNVEYCGELKGDPTMSWNDINCEHLNNWICQIQKGQTPKPEPTPAPQDNPPVTEDGWVIYKDYQYYFSKEKETMDNARAFCKRNFGDLVSIQSESEKKFLWKYVNRNDAQSAYFIGLLISLDKKFAWMDGSKVDYVSWATGEPNFANEDENCVTMYSNSGFWNDINCGYPNAFICQRHNSSINATTVMPTMPSVPSGCKEGWNFYSNKCFKIFGFMEEERKNWQEARKACIGFGGNLVSIQNEKEQAFLTYHMKDSTFSAWTGLNDVNSEHTFLWTDGRGVHYTNWGKGYPGGRRSSLSYEDADCVVIIGGASNEAGKWMDDTCDSKRGYICQTRSDPSLTNPPATIQTDGFVKYGKSSYSLMRQKFQWHEAETYCKLHNSLIASILDPYSNAFAWLQMETSNERVWIALNSNLTDNQYTWTDKWRVRYTNWAADEPKLKSACVYLDLDGYWKTAHCNESFYFLCKRSDEIPATEPPQLPGRCPESDHTAWIPFHGHCYYIESSYTRNWGQASLECLRMGSSLVSIESAAESSFLSYRVEPLKSKTNFWIGLFRNVEGTWLWINNSPVSFVNWNTGDPSGERNDCVALHASSGFWSNIHCSSYKGYICKRPKIIDAKPTHELLTTKADTRKMDPSK
notes: Bought protein, amine-coupled to a CM5 chip (about 5000 RU)
Turning to B1, in the test with DOTA-MART-1, the binding result was “no binding (tested: 0.5 uM-10 uM)”.

B2: CD206 mouse protein (receptor)
chain: LDARQFLIYNEDHKRCVDALSAISVQTATCNPEAESQKFRWVSDSQIMSVAFKLCLGVPSKTDWASVTLYACDSKSEYQKWECKNDTLFGIKGTELYFNYGNRQEKNIKLYKGSGLWSRWKVYGTTDDLCSRGYEAMYSLLGNANGAVCAFPFKFENKWYADCTSAGRSDGWLWCGTTTDYDKDKLFGFCPLHFEGSERLWNKDPLTGILYQINSKSALTWHQARASCKQQNADLLSVTEIHEQMYLTGLTSSLSSGLWIGLNSLSVRSGWQWAGGSPFRYLNWLPGSPSSEPGKSCVSLNPGKNAKWENLECVQKLGYICKKGNNTLNPFIIPSASDVPTGCPNQWWPYAGHCYRIHREEKKIQKYALQACRKEGGDLASIHSIEEFDFIFSQLGYEPNDELWIGLNDIKIQMYFEWSDGTPVTFTKWLPGEPSHENNRQEDCVVMKGKDGYWADRACEQPLGYICKMVSQSHAVVPEGADKGCRKGWKRHGFYCYLIGSTLSTFTDANHTCTNEKAYLTTVEDRYEQAFLTSLVGLRPEKYFWTGLSDVQNKGTFRWTVDEQVQFTHWNADMPGRKAGCVAMKTGVAGGLWDVLSCEEKAKFVCKHWAEGVTRPPEPTTTPEPKCPENWGTTSKTSMCFKLYAKGKHEKKTWFESRDFCKAIGGELASIKSKDEQQVIWRLITSSGSYHELFWLGLTYGSPSEGFTWSDGSPVSYENWAYGEPNNYQNVEYCGELKGDPGMSWNDINCEHLNNWICQIQKGKTLLPEPTPAPQDNPPVTADGWVIYKDYQYYFSKEKETMDNARAFCKKNFGDLATIKSESEKKFLWKYINKNGGQSPYFIGMLISMDKKFIWMDGSKVDFVAWATGEPNFANDDENCVTMYTNSGFWNDINCGYPNNFICQRHNSSINATAMPTTPTTPGGCKEGWHLYKNKCFKIFGFANEEKKSWQDARQACKGLKGNLVSIENAQEQAFVTYHMRDSTFNAWTGLNDINAEHMFLWTAGQGVHYTNWGKGYPGGRRSSLSYEDADCVVVIGGNSREAGTWMDDTCDSKQGYICQTQTDPSLPVSPTTTPKDGFVTYGKSSYSLMKLKLPWHEAETYCKDHTSLLASILDPYSNAFAWMKMHPFNVPIWIALNSNLTNNEYTWTDRWRVRYTNWGADEPKLKSACVYMDVDGYWRTSYCNESFYFLCKKSDEIPATEPPQLPGKCPESEQTAWIPFYGHCYYFESSFTRSWGQASLECLRMGASLVSIETAAESSFLSYRVEPLKSKTNFWIGMFRNVEGKWLWLNDNPVSFVNWKTGDPSGERNDCVVLASSSGLWNNIHCSSYKGFICKMPKIIDPVTTHSSITTKADQRKMDPQPKGSSKA
notes: Bought protein coated on a 96 well plate (1 ug per well); also called mouse CD206 protein; murine CD206
For the molecule B2, the binding result in test [68Ga]MART-1 is “no binding (tested: 50 nM)”.
